What is called stoichiometry N is the number of molecules, sites or subunits per partner or assembly. What is called Ki is a measure of affinity in units of concentration, obtained from inhibition or displacement.

We go through 4 molecules from article PMC7949051, “Comparison of angiopoietin-like protein 3 and 4 reveals structural and mechanistic similarities” (The Journal of Biological Chemistry, 2021).

Data set [1] addresses T1, Bovine lipoprotein lipase (bovine, UniProt P11151 29-478).
T1 sequence (looked up): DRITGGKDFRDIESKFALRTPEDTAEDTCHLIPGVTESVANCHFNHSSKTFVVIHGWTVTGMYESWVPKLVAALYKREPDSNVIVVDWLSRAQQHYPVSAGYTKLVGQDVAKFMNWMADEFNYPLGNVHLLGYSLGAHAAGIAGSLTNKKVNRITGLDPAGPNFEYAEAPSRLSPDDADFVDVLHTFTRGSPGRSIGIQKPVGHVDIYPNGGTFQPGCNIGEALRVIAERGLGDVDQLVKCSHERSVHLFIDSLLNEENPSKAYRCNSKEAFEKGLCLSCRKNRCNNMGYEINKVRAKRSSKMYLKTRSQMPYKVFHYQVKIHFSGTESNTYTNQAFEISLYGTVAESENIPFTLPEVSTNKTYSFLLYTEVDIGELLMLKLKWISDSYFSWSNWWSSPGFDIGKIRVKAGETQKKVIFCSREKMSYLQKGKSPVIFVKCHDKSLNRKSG
The data set is described as follows: cell-based or functional assay.

Data set [2] deals with the molecule itself. The data set is described as follows: SEC-MALS; 24-ml S-200 column, 20 mM Tris-HCl pH 8, 150 mM NaCl, 5% glycerol, 0.5 ml/min; separately concentrated SEC peaks reinjected.
In data set [3] the target is T1, Bovine lipoprotein lipase. The data set is described as follows: enzyme inhibition kinetics (global noncompetitive fit of Michaelis-Menten curves); 10 nM bovine LPL pre-incubated with ANGPTL for 10 min at 22 °C, human VLDL varied, NEFA enzyme-coupled Amplex UltraRed read-out at 37 °C, initial rates; three biological replicates. The following applies: both partners purified.

Data set [4] concerns the molecule itself. As to the kind of experiment: SEC; HEK-293-produced N-terminal ANGPTL3; elution compared with E. coli-produced ANGPTL3. For orientation: SEC sorts molecules by how far they enter the pores of the column.

B1: N-terminal domain of human ANGPTL3 (S17-R224), hexamer (domain or fragment, UniProt Q9Y5C1 17-224, looked up)
chain: SRIDQDNSSFDSLSPEPKSRFAMLDDVKILANGLLQLGHGLKDFVHKTKGQINDIFQKLNIFDQSFYDLSLQTSEIKEEEKELRRTTYKLQVKNEEVKNMSLELNSKLESLLEEKILLQQKVKYLEEQLTNLIQNQPETPEHPEVTSLKTFVEKQDNSIKDLLQTVEDQYKQLNQQHSQIKEIENQLRRTSIQEPTEISLSSKPRAPR
notes: N-terminal (coiled-coil) domain of human ANGPTL3, residues S17 to R224; purified protein with tag 26.8 kDa; No TEV cleavage step is described; Same construct as m2; also called ANGPTL3 peak 1; ANGPTL3 hexamer; source: E. coli Bl21 (DE3) RIPL, purified (Ni-NTA, MonoQ anion exchange, SEC; peak 1 pooled); not shown: His6 with TEV cleavage site, N-terminal, kept
As for B1, the “IC50 of inhibition of LPL activity (10 nM LPL, 200 μg/ml VLDL triglycerides, NEFA/Amplex UltraRed assay)” value in data set [1] came to 14.4 nM. Moreover, the “stoichiometry N” value in data set [2] amounted to 6. For the same molecule, the inhibition constant (Ki) in data set [3] is 13.7 nM.

B2: N-terminal ANGPTL3 (1 to 224) produced in HEK-293 cells (domain or fragment, human, UniProt Q9Y5C1 17-224, looked up)
chain: B1 chain
modifications: N-linked glycans (sites not given)
notes: signal peptide in the construct; human ANGPTL3 residues 1 to 224, collected from the expression medium; also called ANGPTL3 produced in mammalian cells
With B2, in data set [4], the “stoichiometry N” value turned out to be 3.

B3: N-terminal domain of human ANGPTL3 (S17-R224), trimer (domain or fragment, UniProt Q9Y5C1 17-224, looked up)
chain: B1 chain
notes: N-terminal (coiled-coil) domain of human ANGPTL3, residues S17 to R224; purified protein with tag 26.8 kDa; Same construct as m1; also called ANGPTL3 peak 2; ANGPTL3 trimer; source: E. coli Bl21 (DE3) RIPL, purified (Ni-NTA, MonoQ anion exchange, SEC; peak 2 pooled)
Consider B3, for which the “IC50 of inhibition of LPL activity (10 nM LPL, 200 μg/ml VLDL triglycerides, NEFA/Amplex UltraRed assay)” value in data set [1] is 5.8 nM. For the same molecule, the “stoichiometry N” value in data set [2] was determined as 3. In addition, the Ki in data set [3] turned out to be 7.5 nM.

B4: N-terminal domain of human ANGPTL4 (domain or fragment, UniProt Q9BY76 26-163, looked up)
chain: GPVQSKSPRFASWDEMNVLAHGLLQLGQGLREHAERTRSQLSALERRLSACGSACQGTEGSTDLPLAPESRVDPEVLHSLQTQLKAQNSRIQQLFHKVAQQQRHLEKQHLRIQHLQSQFGLLDHKHLDHEVAKPARRK
notes: N-terminal (coiled-coil) domain of human ANGPTL4; monomer 15.4 kDa; also called N-terminal ANGPTL4; ANGPTL4 trimer
In the case of B4, the “IC50 of inhibition of LPL activity (10 nM LPL, 200 μg/ml VLDL triglycerides, NEFA/Amplex UltraRed assay)” value in data set [1] was determined as 4.8 nM. In addition, the “stoichiometry N” value in data set [2] came out at 3. In data set [3], the Ki turned out to be 3.6 nM.
